Source: patent US20250353921A1 (ASTRIA THERAPEUTICS, published 2025)

Legend:
[1] = molecular target: T1, human OX40 (TNFRSF4, CD134) on cells (human, UniProt P43489 29-277); assay: cell-based or functional assay
T1 sequence: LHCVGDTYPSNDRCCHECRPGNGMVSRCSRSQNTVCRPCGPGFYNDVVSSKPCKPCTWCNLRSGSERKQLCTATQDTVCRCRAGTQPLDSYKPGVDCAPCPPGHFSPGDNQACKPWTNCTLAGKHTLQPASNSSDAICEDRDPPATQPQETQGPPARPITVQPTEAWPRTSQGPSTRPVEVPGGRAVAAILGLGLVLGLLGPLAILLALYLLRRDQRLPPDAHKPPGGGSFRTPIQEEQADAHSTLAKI

[2] = molecular target: T1, human OX40 (TNFRSF4, CD134) on cells; assay: cell-based or functional assay; remark: listed apart in the source
[3] = molecular target: T1, human OX40 (TNFRSF4, CD134) on cells; assay: flow cytometry on Jurkat-NFκB (OX40) cells, detection with anti-human IgG Fc-AF647
[4] = molecular target: T2, human OX40-ECD-his (human, UniProt P43489 29-214); assay: ELISA, scFv supernatant on coated human OX40-ECD-his, anti-c-myc detection
T2 construct: whole entry named
T2 sequence: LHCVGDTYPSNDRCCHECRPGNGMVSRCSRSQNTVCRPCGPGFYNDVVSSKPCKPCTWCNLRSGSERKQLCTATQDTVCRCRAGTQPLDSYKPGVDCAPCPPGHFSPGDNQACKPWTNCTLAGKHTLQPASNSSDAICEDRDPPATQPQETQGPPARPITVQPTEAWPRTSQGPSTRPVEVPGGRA
Description: The binding of scFv clones was assessed by ELISA. Individual E. coli colonies from the second round of selection were picked and grown in 2YT ampicillin medium (96-well deep well plates). ScFv expression was induced by addition of 1 mM of IPTG and incubation ON at 30° C. and 250 RPM. Cells were centrifuged and culture supernatant were used for screening. RIA/EIA plates were coated with either 200 ng/well of human OX40-ECD-his or cynomolgus OX40-ECD-Fc. In order to discriminate potential antibodies selected against the Fc fragment, a plate was also coated with an irrelevant Fc fused antigen. The plates were then blocked with PBS supplemented with 3% Bovine Serum Albumin (BSA). 80 μL of bacteria culture supernatants were then mixed with 20 μl of 3% BSA and added to the blocked plates for 1 hr at room temperature. Bound scFvs were detected using a biotinylated chicken anti-c-myc antibody diluted 1:5000 in PBS-0.3% BSA incubated for 1 hr at RT, followed by staining with the Pierce High Sensitivity Streptavidin-HRP reagent diluted 1:8000 in PBS-0.3% BSA for 30 min at RT. Plates were extensively washed using PBS supplemented with 0.05% Tween 20 between each incubation step. […] Clones that bound specifically to both human and cynomolgus OX40 but not to irrelevant antigen-Fc fusion protein were DNA sequenced.

[5] = molecular target: T3, Human CD16b (NA2 allotype), Sino Biological 11046-H08H (human, UniProt O75015 17-200); assay: SPR Biacore 8K+, receptor captured by anti-His, antibody as analyte
T3 construct: also called FcγRIIIb
T3 sequence (O75015 17-200 N65S limits assumed): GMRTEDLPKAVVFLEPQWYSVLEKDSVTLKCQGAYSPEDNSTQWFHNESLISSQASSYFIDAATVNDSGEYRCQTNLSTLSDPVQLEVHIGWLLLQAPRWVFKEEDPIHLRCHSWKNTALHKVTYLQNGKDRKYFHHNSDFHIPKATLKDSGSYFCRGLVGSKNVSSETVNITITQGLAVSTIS
Description: (§1) Measurements were performed on a Biacore 8K+ instrument (Cytiva Life Sciences) using the Biacore 8K+ Control Software and analyzed with the Biacore Insight Evaluation Software (v3.0). […] After each binding event, baseline levels were restored using a regeneration solution on both flow-paths. HBS-EP+pH 7.4 solution were used as running buffer. Data was analyzed using the MCK evaluation method of the Biacore Insight Evaluation Software and kinetic parameters were determined using the 1:1 binding and steady-state affinity methods.
(§2) Each measurement is the mean of three identical replicate conditions.

[6] = molecular target: T4, Human CD32b, Sino Biological 10259-H08H (human, UniProt P31994 43-217); assay: as above
T4 construct: also called FcγRIIb
T4 sequence (looked up): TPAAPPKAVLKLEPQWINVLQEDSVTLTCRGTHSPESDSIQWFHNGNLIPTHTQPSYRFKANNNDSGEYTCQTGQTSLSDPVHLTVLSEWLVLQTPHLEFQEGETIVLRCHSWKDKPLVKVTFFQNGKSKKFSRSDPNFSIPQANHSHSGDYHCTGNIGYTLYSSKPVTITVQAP
Description: as §1, §2

[7] = molecular target: T5, Human CD32a (167 Arg), Sino Biological 10374-H08H (human, UniProt P12318 34-218); assay: as above
T5 construct: also called FcγRIIa167R
T5 sequence (looked up): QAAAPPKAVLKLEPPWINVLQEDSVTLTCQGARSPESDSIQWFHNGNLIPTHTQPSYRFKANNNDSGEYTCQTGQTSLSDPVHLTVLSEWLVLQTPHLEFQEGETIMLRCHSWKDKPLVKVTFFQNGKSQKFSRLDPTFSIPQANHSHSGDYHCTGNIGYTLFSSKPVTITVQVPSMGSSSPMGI
Description: as §1, §2

[8] = molecular target: Human CD64 (FcγRI), Sino Biological 10256-H08H (human, UniProt P12314 16-288); assay: as above
Sequence of Human CD64 (FcγRI), Sino Biological 10256-H08H (P12314 16-288 limits assumed): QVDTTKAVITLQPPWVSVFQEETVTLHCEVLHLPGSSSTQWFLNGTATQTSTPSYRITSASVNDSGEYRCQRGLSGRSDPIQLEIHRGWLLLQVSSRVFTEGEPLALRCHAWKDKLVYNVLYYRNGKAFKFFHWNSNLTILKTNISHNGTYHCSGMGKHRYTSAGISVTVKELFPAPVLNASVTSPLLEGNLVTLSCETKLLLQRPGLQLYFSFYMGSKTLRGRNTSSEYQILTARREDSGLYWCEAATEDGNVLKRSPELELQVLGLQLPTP
Description: as §1, §2

[9] = molecular target: T6, Human CD16a (176F), Sino Biological 10389-H08H (human, UniProt P08637 17-208); assay: as above
T6 construct: also called FcγRIIIa176F
T6 sequence (P08637 17-208 limits assumed): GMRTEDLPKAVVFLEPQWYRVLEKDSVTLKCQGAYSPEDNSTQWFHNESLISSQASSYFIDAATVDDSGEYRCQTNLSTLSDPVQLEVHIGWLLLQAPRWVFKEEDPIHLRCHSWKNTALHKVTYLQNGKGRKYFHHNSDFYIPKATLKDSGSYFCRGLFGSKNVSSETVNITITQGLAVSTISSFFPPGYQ
Description: as §1, §2

[10] = molecular target: T7, Human CD32a (167 His), Sino Biological 10374-H08H1 (human, UniProt P12318 34-218); assay: as above
T7 construct: also called FcγRIIa167H
T7 sequence (looked up): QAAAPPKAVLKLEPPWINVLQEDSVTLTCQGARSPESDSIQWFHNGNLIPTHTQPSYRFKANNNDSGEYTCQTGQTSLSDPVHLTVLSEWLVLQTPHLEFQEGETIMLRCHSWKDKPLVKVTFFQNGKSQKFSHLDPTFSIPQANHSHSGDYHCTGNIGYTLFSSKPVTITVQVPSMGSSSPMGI
Description: as §1, §2

[11] = molecular target: T8, Human CD16a (F176V), Sino Biological 10389-H08H1 (human, UniProt P08637 17-208); assay: as above
T8 construct: also called FcγRIIIa176V
T8 sequence (P08637 17-208 F176V limits assumed): as the sequence (P08637 17-208 limits assumed) above, with F160V counted along it
Description: as §1, §2

B1: OX40L (recombinant human OX40 ligand) (ligand, UniProt P23510 51-183, looked up)
chain: QVSHRYPRIQSIKVQFTEYKKEKGFILTSQKEDEIMKVQNNSVIINCDGFYLISLKGYFSQEVNISLHYQKDEEPLFQLKKVRSVNSLMVASLTYKDKVYLNVTTDNTSLDDFHVNGGELILIHQNPGEFCVL
**Q.** How did the “luminescence, Jurkat-NFκB-OX40 agonism assay” value [1] turn out when B1 was run?
**A.** 8 fold

**Q.** And the “average proliferation index (Av), coated T cell agonism assay” value [2]?
**A.** 5.61

B2: OX40L (P865) (Fc fusion, human, UniProt P23510 51-183, looked up)
OX40L-Fc chain: QVSHRYPRIQSIKVQFTEYKKEKGFILTSQKEDEIMKVQNNSVIINCDGFYLISLKGYFSQEVNISLHYQKDEEPLFQLKKVRSVNSLMVASLTYKDKVYLNVTTDNTSLDDFHVNGGELILIHQNPGEFCVL
notes: the sheet prints OX40L (P865) in the legend box and OX40L (P685) beside the curve; also called OX40L-Fc; OX40L (P685)
**Q.** B2 was tested. Which “EC50 (read off the curve)” value [3] did it give?
**A.** ~0.2 µg/mL

B3: MAB8 scFv clone (scFv)
scFv: QVTLKESGPALVKPTQTLTLTCSFSGFSLSTSGMGVGWIRQPPGKALEWIAHIWWDDDKYYNTALKTRLTISKDTSKNQVVLTMTNMDPVDTATYYCARIDWDGFAYWGQGTLVTVSSGGGGSGGGGSGGGGSEIVLTQSPATLSLSPGERATLSCRASSSVSYMHWYQQKPGQAPRPWIYATSNRATGIPARFSGSGSGTDYTLTISSLEPEDFAVYYCQQTVAWPWTFGQGTKVEIK
**Q.** Does B3 bind [4]?
**A.** binds

B4: MAB7 scFv clone (scFv)
scFv: QVTLKESGPALVKPTQTLTLTCSFSGFSLSTSGMGVGWIRQPPGKALEWIAHIWWDDDKYYNTALKTRLTISKDTSKNQVVLTMTNMDPVDTATYYCARIDWDGFAYWGQGTLVTVSSGGGGSGGGGSGGGGSEIVLTQSPATLSLSPGERATLSCRASSSVSYMHWYQQKPGQAPRPWIYATSNRATGIPARFSGSGSGTDYTLTISSLEPEDFAVYYCQQMEFTPWTFGQGTKVEIK
**Q.** Does B4 bind [4]?
**A.** binds

B5: MAB4 scFv clone (scFv)
scFv: QVTLKESGPALVKPTQTLTLTCSFSGFSLSTSGMGVGWIRQPPGKALEWIAHIWWDDDKYYNTALKTRLTISKDTSKNQVVLTMTNMDPVDTATYYCARIDWDGFAYWGQGTLVTVSSGGGGSGGGGSGGGGSEIVLTQSPATLSLSPGERATLSCRASSSVSYMHWYQQKPGQAPRPWIYATSNRATGIPARFSGSGSGTDYTLTISSLEPEDFAVYYCQQTLLFPWTFGQGTKVEIK
**Q.** Does B5 bind [4]?
**A.** binds

B6: MAB9 scFv clone (scFv)
scFv: QVTLKESGPALVKPTQTLTLTCSFSGFSLSTSGMGVGWIRQPPGKALEWIAHIWWDDDKYYNTALKTRLTISKDTSKNQVVLTMTNMDPVDTATYYCARIDWDGFAYWGQGTLVTVSSGGGGSGGGGSGGGGSEIVLTQSPATLSLSPGERATLSCRASSSVSYMHWYQQKPGQAPRPWIYATSNRATGIPARFSGSGSGTDYTLTISSLEPEDFAVYYCQAASSSSLEFGQGTKVEIK
**Q.** Does B6 bind [4]?
**A.** binds

B7: MAB5 scFv clone (scFv)
scFv: QVTLKESGPALVKPTQTLTLTCSFSGFSLSTSGMGVGWIRQPPGKALEWIAHIWWDDDKYYNTALKTRLTISKDTSKNQVVLTMTNMDPVDTATYYCARIDWDGFAYWGQGTLVTVSSGGGGSGGGGSGGGGSEIVLTQSPATLSLSPGERATLSCRASSSVSYMHWYQQKPGQAPRPWIYATSNRATGIPARFSGSGSGTDYTLTISSLEPEDFAVYYCQQTLHYPWTFGQGTKVEIK
**Q.** Does B7 bind [4]?
**A.** binds

B8: MAB2 scFv clone (scFv)
scFv: QVTLKESGPALVKPTQTLTLTCSFSGFSLSTSGMGVGWIRQPPGKALEWIAHIWWDDDKYYNTALKTRLTISKDTSKNQVVLTMTNMDPVDTATYYCARIDWDGFAYWGQGTLVTVSSGGGGSGGGGSGGGGSEIVLTQSPATLSLSPGERATLSCRASSSVSYMHWYQQKPGQAPRPWIYATSNRATGIPARFSGSGSGTDYTLTISSLEPEDFAVYYCQQFGDPPWTFGQGTKVEIK
**Q.** Does B8 bind [4]?
**A.** binds

B9: MAB3 scFv clone (scFv)
scFv: QVTLKESGPALVKPTQTLTLTCSFSGFSLSTSGMGVGWIRQPPGKALEWIAHIWWDDDKYYNTALKTRLTISKDTSKNQVVLTMTNMDPVDTATYYCARIDWDGFAYWGQGTLVTVSSGGGGSGGGGSGGGGSEIVLTQSPATLSLSPGERATLSCRASSSVSYMHWYQQKPGQAPRPWIYATSNRATGIPARFSGSGSGTDYTLTISSLEPEDFAVYYCQQTIEWPWTFGQGTKVEIK
**Q.** Does B9 bind [4]?
**A.** binds

B10: MAB6 scFv clone (scFv)
scFv: QVTLKESGPALVKPTQTLTLTCSFSGFSLSTSGMGVGWIRQPPGKALEWIAHIWWDDDKYYNTALKTRLTISKDTSKNQVVLTMTNMDPVDTATYYCARIDWDGFAYWGQGTLVTVSSGGGGSGGGGSGGGGSEIVLTQSPATLSLSPGERATLSCRASSSVSYMHWYQQKPGQAPRPWIYATSNRATGIPARFSGSGSGTDYTLTISSLEPEDFAVYYCQQWETWPWTFGQGTKVEIK
**Q.** Does B10 bind [4]?
**A.** binds

B11: MAB1 scFv clone (scFv)
scFv: QVTLKESGPALVKPTQTLTLTCSFSGFSLSTSGMGVGWIRQPPGKALEWIAHIWWDDDKYYNTALKTRLTISKDTSKNQVVLTMTNMDPVDTATYYCARIDWDGFAYWGQGTLVTVSSGGGGSGGGGSGGGGSEIVLTQSPATLSLSPGERATLSCRASSSVSYMHWYQQKPGQAPRPWIYATSNRATGIPARFSGSGSGTDYTLTISSLEPEDFAVYYCQQFGAWPWTFGQGTKVEIK
notes: Phage library scFv in bacterial culture supernatant
**Q.** Does B11 bind [4]?
**A.** binds

B12: MAB11 (antibody, human IgG1, kappa)
heavy: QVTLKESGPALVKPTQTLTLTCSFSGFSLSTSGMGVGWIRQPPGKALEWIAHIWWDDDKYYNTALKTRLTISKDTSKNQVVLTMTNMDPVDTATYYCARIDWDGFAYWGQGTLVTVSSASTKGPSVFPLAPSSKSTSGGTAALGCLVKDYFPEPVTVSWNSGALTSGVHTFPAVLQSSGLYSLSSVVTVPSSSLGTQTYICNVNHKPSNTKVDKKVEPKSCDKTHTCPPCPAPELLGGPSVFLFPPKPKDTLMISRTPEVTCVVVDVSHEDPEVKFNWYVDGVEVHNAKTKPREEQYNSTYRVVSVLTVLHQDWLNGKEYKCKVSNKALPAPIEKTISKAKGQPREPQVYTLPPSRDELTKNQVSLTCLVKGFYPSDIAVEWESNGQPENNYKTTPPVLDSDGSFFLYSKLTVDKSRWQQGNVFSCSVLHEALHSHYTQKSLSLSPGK
light: EIVLTQSPATLSLSPGERATLSCRASSSVSYMHWYQQKPGQAPRPWIYATSNRATGIPARFSGSGSGTDYTLTISSLEPEDFAVYYCQQFGAWPWTFGQGTKVEIKRTVAAPSVFIFPPSDEQLKSGTASVVCLLNNFYPREAKVQWKVDNALQSGNSQESVTEQDSKDSTYSLSSTLTLSKADYEKHKVYACEVTHQGLSSPVTKSFNRGEC
notes: IgG1 with M428L and N434S; also called MAB1 Heavy Chain + LS
**Q.** How did the Kd [5] turn out when B12 was run?
**A.** 2.74 µM

**Q.** And the Kd [6]?
**A.** 9.88 µM

**Q.** What about the Kd [7] of the same binder?
**A.** 5.43 µM

**Q.** And the Kd [8]?
**A.** 0.0063 µM

**Q.** And the Kd [9]?
**A.** 0.246 µM

**Q.** And the Kd [10]?
**A.** 3.38 µM

**Q.** And the Kd [11]?
**A.** 0.221 µM
